How the values were obtained:
[1] = target: T1, recombinant VEGFR-1/Fc chimera (UniProt P17948 27-758); experiment: ELISA; 96-well Maxisorp plates coated with 10 ug/ml sVEGFR-1; binding buffer PBS with 3% BSA, 1 mM CaCl2, 0.5 mM MgCl2; 2 ug/ml VEGFR-1/Fc, 4 ug/ml VEGFR-2/Fc or 1 ug/ml NRP-1/Fc added; detection with alkaline phosphatase-conjugated anti-human Fc antibody, absorbance at 405 nm; selected wells pre-incubated with 5 ug/ml D16F7 mAb for 30 min at room temperature; details: both partners purified
T1 construct: Vascular endothelial growth factor receptor-1 (VEGFR-1), extracellular region, fused with the Fc region of human immunoglobulins; Bought chimera; source: bought: R&D Systems

[2] = target: T2, recombinant VEGFR-2/Fc chimera (UniProt P35968 20-764); experiment: as above; details: both partners purified
T2 construct: Vascular endothelial growth factor receptor-2 (VEGFR-2), extracellular region, fused with the Fc region of human immunoglobulins; Bought chimera; source: bought: R&D Systems
T2 sequence (P35968 20-764, stated change not applied): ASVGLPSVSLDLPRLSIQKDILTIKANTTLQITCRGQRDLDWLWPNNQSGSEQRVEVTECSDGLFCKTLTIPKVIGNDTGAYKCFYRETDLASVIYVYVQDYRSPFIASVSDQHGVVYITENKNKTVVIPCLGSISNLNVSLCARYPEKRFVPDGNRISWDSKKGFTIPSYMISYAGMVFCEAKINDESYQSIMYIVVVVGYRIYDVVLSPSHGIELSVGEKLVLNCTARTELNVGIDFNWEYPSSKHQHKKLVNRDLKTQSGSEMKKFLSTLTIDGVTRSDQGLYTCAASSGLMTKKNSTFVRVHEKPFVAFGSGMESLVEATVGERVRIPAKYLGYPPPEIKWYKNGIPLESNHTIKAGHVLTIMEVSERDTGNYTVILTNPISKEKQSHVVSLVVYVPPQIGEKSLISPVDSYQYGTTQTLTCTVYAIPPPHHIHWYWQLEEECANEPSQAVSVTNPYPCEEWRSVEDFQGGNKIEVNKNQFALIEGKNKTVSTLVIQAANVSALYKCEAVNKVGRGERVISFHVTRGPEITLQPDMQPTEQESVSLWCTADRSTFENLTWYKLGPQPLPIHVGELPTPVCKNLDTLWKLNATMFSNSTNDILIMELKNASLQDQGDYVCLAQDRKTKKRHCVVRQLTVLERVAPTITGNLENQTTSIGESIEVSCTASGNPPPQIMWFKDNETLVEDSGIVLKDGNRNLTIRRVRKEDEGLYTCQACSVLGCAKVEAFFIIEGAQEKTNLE

B1: native human soluble VEGFR-1 (sVEGFR-1) (receptor, UniProt P17948-2 27-687, looked up)
chain: SKLKDPELSLKGTQHIMQAGQTLHLQCRGEAAHKWSLPEMVSKESERLSITKSACGRNGKQFCSTLTLNTAQANHTGFYSCKYLAVPTSKKKETESAIYIFISDTGRPFVEMYSEIPEIIHMTEGRELVIPCRVTSPNITVTLKKFPLDTLIPDGKRIIWDSRKGFIISNATYKEIGLLTCEATVNGHLYKTNYLTHRQTNTIIDVQISTPRPVKLLRGHTLVLNCTATTPLNTRVQMTWSYPDEKNKRASVRRRIDQSNSHANIFYSVLTIDKMQNKDKGLYTCRVRSGPSFKSVNTSVHIYDKAFITVKHRKQQVLETVAGKRSYRLSMKVKAFPSPEVVWLKDGLPATEKSARYLTRGYSLIIKDVTEEDAGNYTILLSIKQSNVFKNLTATLIVNVKPQIYEKAVSSFPDPALYPLGSRQILTCTAYGIPQPTIKWFWHPCNHNHSEARCDFCSNNEESFILDADSNMGNRIESITQRMAIIEGKNKMASTLVVADSRISGIYICIASNKVGTVGRNISFYITDVPNGFHVNLEKMPTEGEDLKLSCTVNKFLYRDVTWILLRTVNNRTMHYSISKQKMAITKEHSITLNLTIMNVSLQDSGTYACRARNVYTGEEILQKKEITIRGEHCNKKAVFSRISKFKSTRNDCTTQSNVKH
notes: The methods call it 'Native human sVEGFR-1'; also called recombinant sVEGFR-1; source: bought: ReliaTech
Does B1 bind [1]?
Result: binds

Does B1 bind [2]?
Result: binds
